Reference: the nanobody polyreactivity screen of Harvey et al. (2022)

experiment: yeast display, Sf9 membrane polyspecificity reagent, FACS + sequencing; frameworks hold sequencing errors
Summary of the method: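 Nanobodies came from a synthetic yeast display library in Saccharomyces cerevisiae BJ5465, induced with galactose for 36–48 hours and stained for 1 hour at 4 °C with 10% biotinylated, detergent-solubilized Sf9 membrane reagent. Cells were enriched on streptavidin microbeads and then FACS-sorted, with low and high (top ~1%) gates set on anti-HA fluorescence for expression and streptavidin fluorescence for reagent binding. Each polyreactivity label reflects the gate a clone came from. Genes were amplified by colony PCR, sequenced by MiSeq 2 × 250 and filtered by CDR length.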

Sequence	polyreactivity (PSR sort gate)
QVQLVESGGGLVQAGGSLRLSCAASGRIIGFNAMGWYRQAPGKERELVASIRTTGGSTRYADSVKGRFTISRDNAKNTVYLQMNSLKPEDTAVYDCAARWGKTLWQYNYWGQGTQVTVSS	high polyreactivity
QVQLVESGGGLVQAGGSLRLSCDASGSTFRGYAMGWYRQAPGKERDLVAAISRYGGSTYYADSVKGRFTISRDNAKTTVYIQMNSLKPEDTAGYYCNARSSKRSSRGYDYWGQGTQVTVSS	high polyreactivity
QVQLVESGGGLVQAGGSLRLSCAASGSIFGIYAMGWYRPAPGKERELVATINSRGTTNYADSVKGRFTISRDNAKNTVYLQMNSLKPEDTAVYYCAARFSTYRGKRKGYEYWGQGTQVTVSS	high polyreactivity
QVQLVESGGGLVQAGGSLRLSCAASGSTLYDYTMGWYRQAPGKERELVAAIRVSGARTFYADSVKGRFTISRDNAKNTVYLQMNSLKPEDTAVYYCAARWYIANPLSPSDYWGQGTQVTVSS	low polyreactivity
QVQLVESGGGLVQAGGSLRLSCAASGSTFLPNDMGWYRQAPGKERELVAAISWSDGSTYYADSVKGRFTISRDNAKNTVYLQMNSLKPEDTAVYYCNTVGFDYYYYEYDYWGQGTQVTVSS	low polyreactivity
QVQLVESGGRLVQSGGSLRLSCAASGRIFLYYTMGWYRQAPGKERELVATIRSGDSTNYADSVKGRFTISRDNAKNTVYLQMNSLKPEVTAVYYCAADWDIFQQGANGAPYDYWGQGTQVTVSS	low polyreactivity
QVQLVESGGGLVQAGGSLRLSCAASGSIFPAYAMGWYRQAPGKERELVAASTDRGGSTSYADSVKGRFTISRDNAKNTVYLHKNSLKPEDT	low polyreactivity
QVQLVESGGGLVQAGGSLRISCAASGSIFLLYTMGWYRQAPGKEREMVATITSSGGSTYYADSVKGRFTISRDNAKNTVYLHMNSLKPEDTAVYDCNAVGSTWGSFVRYGAQYDYWGQGTEVTVSS	low polyreactivity
QVQLVESGGGLVQAGGSLRLSCAASGIIFGFYAMGWYRQAPGKERELVAAITNDGGITNYADSVKGRFTISRDNAMNTVYLQMNSLKPEDTAVYYCAKDQWPWVRDSLYTLRYDYWGQGTQVTVSS	low polyreactivity
QVQLVESGGGLVQAGGSLRLSCAASGSTFKFYAMGWYRQAPGKARELVASITSSSGPTYYADSVKGRFTISRDNAKNTVYLQMNSLKPEDPAVYYCNKDWRRYWLRGDYWGQGTQVTVSS	low polyreactivity
QVQLVESGGGLVQAGGSLRLSCAASGYTFAGYAMGWYRQAPGKERELVAAISRNGGTTYYADSVKGRFTISRDNAKNTVYLQMNSLKPEDTADYYCNKRGWYSVYRRDYWGQGTQVTVSS	high polyreactivity
QVQLVESGGGLVQAGGSLRLSCAASGSTFSTYDMGWYRQAPGKEREFVAAISDSGGSTYYADSVKGRFTISRDNAKNTVYLQMNSLKPEDTAVYYCNATVVFVQYVDYDYWGQGTQVTVSS	low polyreactivity
KVQLVESGGGLVQAGGSLRLSCPASGFTFKSYTMAWSSQAPGKERELVAAISRRDGSTYYADSVKGRFPISRDNAKNTVYFQMNSLKPEDTAVYYCNAYTYGSEFDYWGQGTQVTVST	high polyreactivity
QVQLVESGGGLVQAGGSLRLSCAPSGSTLTSNAMGWYRQAPGKERELVAASRSGGSTNYADSVKGRFTISRDNAKNTVYLQMNSLKPEDTAVYYCNKDFLWQGYGYSRVSYDYWGQGTQVTVSS	low polyreactivity
QVRLVESGGGLVQAGGSLRLSCAASGSIFYFNAMGWYRQAPGKERELVATIRYRGGRTYADSVKGRFTISRDNAKNTVYLQMNSLKPEDTAVYFCNTYARYAYLTGRMDYWGQGTQVTVSS	high polyreactivity
QVQLVESGGGLVQAGGSLRLSCAASGSTFKRNAMGWYRPATGKERELVATITRRGGSTYADSVKGRFTISRDNAKNTVYLQMNSLKPEDTAVYYCNADSRPLSTYYYWGQGTQVTVSS	low polyreactivity
QVQLVESGGGLVQAGGSLRLSCAASGFIFGDNAMGWYRQAPGKERELVAAITYSGGSTYYADSVKGRFTISRDYAKNTVYLQMNSLKPEDTAVYDCAASNQWSSTYLTYGYYYWGQGTQVTVSS	low polyreactivity
QVQLVESGGGLVQAGGSLRLSSAASGRIFGHYAMGWYRQAPGKERELVAAISRSGTRTYYADSVKGRFTISRDNAKNTVYLQMNSLKPEDTAVYYCAAYTYKGIYYYWGQGTQVTVSS	high polyreactivity
QVQLVESGGGLVQAGGSHRLSCAASGLTFFTYAMGWYRQAPGKERELVATISSRGGRTYYADSVKGRFTISRDNAKNTVYLQMNSLKPEDTAVYYCAARGVWKSKHNYWGQGTQVTVSS	high polyreactivity
QVQLVESGGGLFQARGSLRLSCAASGLTFWYYDMGWYRQAPGKERELFAAINSGGSTYYADSEKGRFTISRDNAKNTVYLEINRLKPEDTAVYYCNKDFSKTWRYASYYYWGQGTQVTVSS	low polyreactivity
QVQLVESGGGLVQAGGSLRLSCAASGFIFDYYAMGWYRQAPVKERELVAAISWSGGSTYYADSVKGRFTISRDNAKNTVYLQMNSLKPEDTAVYYCNSYYQGYWGDFDYWGQGTQVTVSS	high polyreactivity

Sequence	polyreactivity (PSR sort gate)
QVQLVESGGGLVQAGGSLRLICAASGSTFAYNDMGWYRQAPGTERELVADIRSGGNTNYADSVKGRFTISRDNAKNTVYLQMNSLKPEDTAVYYCATDGYRIDVYHPDYRYDYWGQGTQVTVSS	low polyreactivity
QLQLVESGGGLVQAGGSLRLSCAASGFNFPANAMGCYRQAPGKEREFVAAITRRGGSTYYADSVKGRFTISRDYAKNPVYLQMNSLKPEDTAVYYCATYDPARSTQGYDYWGQGTQVTVSS	high polyreactivity
QVQLVESGGGLVQAGGSLRLSCAASGFTFGWYAMGWYRPAPGKERELVAAITTSGGRTNYADSVKGRFTISRDNAKNTVYLQMNSLKPEDTAVYYCNADSPYYVGGFDYWGQGTQVTVSS	low polyreactivity
QVQLVESGGGLVQAVGSLRLSCAASGSIFAVNTIGWYRQAPGKERELVASISQRGSSTYYADSVKGRFTISRDIAKNTVYLQMNSLIPEDTAVYYCAVVQRYWYAGIVPYDYWGQGTQVTVSS	high polyreactivity
QDQLVDSGGGLVQAGGSLRLSSSDSGSIFRYYTMGWYRQSPGKERELVARISSSRSTNYADSVKGRFTISRDNAKNTVYLQMNSLKPEDTEVYYCAARAFSWAGFYYWGQGTQVTVSS	low polyreactivity
QDQLVESGGGLVQAGGSLRLSCAASGFIFNYYGMGWYRQAPGKERELVATISRGASTNYADSVKGRFTISRDNAKNTVYLQMNSLKPEDTAVYYCAKDYGDWGQGTQVTVSS	low polyreactivity
QVQLVESGGGLVQAGGSLRLSCAASGSIFDSNAMGWYRQAPGKERELVAAITGSGTSTYDADSVKGRFTISRDNAKNTVYLQMNSLKPEDTAVYYCAAAPEYLTDHDYWGQGTQVTVSS	low polyreactivity
QVQLVESGGGLVQAGGSLRLSCAASGITFGCNAMGWYRQAPGKEREFVAAITFSDGSTRYADSVKGRFTISRDNAKNTVYLQMNSLKPEDTAVYYCAADTWSDKYDYWGQGTQVTVSS	low polyreactivity
QVQLVESGGGLVQAGGSLRLRCAASGLTFVDNAMGWYSQAPGKERELVAAITKRGGRTYYADSVKGRFTISRDNAKNTVYLQMNSLKPEDPAVYYCARDSGNDSSRRLDYWGQGTQVTVSS	low polyreactivity
QVQLVESGGGLVQAGGSLRLSCAASGIIFANNDMGWSRQAPGKERELVAVITFSDGSTYYADSVKGRFTISRDNAKNTVYLQMNSLKPEDTAVYYCATRIRSYYYWGQGTQVTVSS	high polyreactivity
QVQLVESGGGLVQAGGSLRLICAASGSIIGANAMGWSRQAPGKERELGAAITDNTSTTFYADSVKGRFTISRDIAKNTVYLQMNSLKPEDTAVYYCNADRAVVLSTPLWGEYDYWGQGTQVTVSS	low polyreactivity
QVQLVESGGGLVQAGGRLRLSCAASGRTFYGYAMGWYSPAPGKERELVAAITNGGRTYYADSVKGRFTISRDNAKNTVYLQMNSLKPEATAVYYCAAGPGRGRSTLGSYYWGQGTQVTVSS	high polyreactivity
QDQLVDSGGRLVQGGGSLRLSCAASGYIFIWYDMGWYRQAPGKERELVAAISGSGGYTYYADSVKGRFTISRDNAKNTVFLQMNSLKPEDTAVYYCAAYVARGNSEVIAMDYWGQGTQVTVSS	low polyreactivity
QVQLQESGGGLVQEGGSLRLTCAASGNISPPADMGWYRQAPGKERELVASIGTGGTTNYADSVKGRFTISRDNAKNTVYLQMNSLKPDDTAVYYCAAVRYEYNPYDYWGQGTQVSVSS	low polyreactivity
QVQLVESGGGLVQAGGSLRLSCAASGFIFRRNAMGWYRQAPGKERELVAAISAGGTSTYYADSVKGRFTISRDNAKNTVYLQMNSLKPEDTAVYYCNKAYYYDAEYDYWGQGTQVTVSS	high polyreactivity
QVQLVESGGGLVQAGGSLRLRCAASGFTFRYYALAWYRPAPGKERELVAAISGSGGSTYYADSVKGRFTISRDNAKNTVYLQMNSLKPEDTAVYYCNALSARSRLQSDYWGQGTQVTVSS	high polyreactivity
QVQLVESGGGLVQAGGSLRLSCAASGFIFGTYAMGWYRQAPGKERELVAAISSGGSTYYADSVKGRFTISRDNAKNTVYLQMNSLKPEDTAVYYCAKEGGTYRIFNYWGQGTQVTVSS	low polyreactivity
QVQLVESGGGLVQAGGSLRLSCAASGSIFSTNGMGWYRQAPGKERELVAAISTGGRTYYADSVKGRFTISRDNAKNTVYLQMNSLKPEDTAVYYCAKRFGYRSTQILDYWGQGTQVTVSS	low polyreactivity
QVQLVESGVGLVQAGGSLRLSCAASGRIFIKYAMGWYRQAPGKEREFVAAISGRGGSTYYADSVKGRFTISRDNAKNTVYLQMNSLKPEDTAFYYCAKRFFYSGTAAGMYYWGQGTQVTVSS	high polyreactivity
QVQLVESGGGLVQAGGSLRLSCAASGSIFGWYTMGWYRQAPGKERELVAAITWRGGTTYYADSVKGRFTISRDNAKNTVYLQMNSLKPEDTAVYYCATTRYPRSYQEFGYWGQGTQVTVSS	high polyreactivity
